From patent US20230103584A1 (BLACK BELT THERAPEUTICS, published 2023)
Residue numbers refer to the chain shown, from its start.

Assays:
[1] = biological target: Recombinant, Histidine-tagged extracellular domain of human CD38 (human) (UniProt P28907); assay: ForteBio BLI
[2] = biological target: T1, Human CD38 expressed on cells (Daudi, Raji, Jurkat, human PBMC/T cells, Tregs, HEK-293T transfectants) (human, UniProt P28907 1-300); assay: cell-based or functional assay
T1 sequence: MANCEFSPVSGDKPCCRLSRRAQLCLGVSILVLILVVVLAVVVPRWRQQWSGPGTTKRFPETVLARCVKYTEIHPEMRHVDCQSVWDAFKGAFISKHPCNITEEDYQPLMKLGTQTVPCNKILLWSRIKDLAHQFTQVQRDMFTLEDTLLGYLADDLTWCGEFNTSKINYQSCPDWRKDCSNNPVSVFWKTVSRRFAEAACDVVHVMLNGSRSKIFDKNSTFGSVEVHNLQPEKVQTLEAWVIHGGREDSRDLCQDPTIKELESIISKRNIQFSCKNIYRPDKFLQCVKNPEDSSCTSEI

[3] = biological target: T2, Cynomolgus monkey CD38 expressed on T cells / PBMC (Cynomolgus monkey, UniProt Q5VAN0 1-301); assay: flow cytometry on cynomolgus cells, gated on CD8-positive cells, secondary antibody staining
T2 construct: whole, on cells; also called cyno T cells; cynomolgus pan T cells
T2 sequence (looked up): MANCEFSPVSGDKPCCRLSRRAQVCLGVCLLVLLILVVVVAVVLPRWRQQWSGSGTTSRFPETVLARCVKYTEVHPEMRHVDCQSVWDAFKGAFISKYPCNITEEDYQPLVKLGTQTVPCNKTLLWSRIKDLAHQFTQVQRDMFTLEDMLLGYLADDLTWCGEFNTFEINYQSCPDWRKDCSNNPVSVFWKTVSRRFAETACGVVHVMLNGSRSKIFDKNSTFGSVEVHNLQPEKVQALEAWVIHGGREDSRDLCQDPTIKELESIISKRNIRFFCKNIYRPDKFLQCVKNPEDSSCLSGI

[4] = biological target: T1, Human CD38 expressed on cells (Daudi, …); assay: cell-based or functional assay; remark: listed apart in the source
[5] = biological target: T1, Human CD38 expressed on cells (Daudi, …); assay: cell-based or functional assay; remark: listed apart in the source
[6] = biological target: T1, Human CD38 expressed on cells (Daudi, …); assay: cell-based or functional assay; remark: listed apart in the source
[7] = biological target: T2, Cynomolgus monkey CD38 expressed on T …; assay: flow cytometry on cynomolgus cells, gated on CD4-positive cells, secondary antibody staining

For “IB4, reference monoclonal agonistic mouse anti-human CD38 antibody”, the Kd [1] was 9 nM.

B1: aCD38-b-348 (human IgG1) (antibody, V domains shown)
VH: QLQLQESGPGLVKPSETLSLTCTVSGGSISSSDYYWGWIRQPPGKGLEWIGSIYYSGSTYYNPSLKSRVTISVDTSKNQFSLKLSSVTAADTAVYYCARGQYSSGWYAYPFDMWGQGTMVTVSS
VL: EIVLTQSPGTLSLSPGERATLSCRASQSVRSSYLAWYQQKPGQAPRLLIYGASSRATGIPDRFSGSGSGTDFTLTISRLEPEDFAVYYCQQDGNVYTFGGGTKVEIK
notes: First made as IgG in yeast
For B1, the “ADCC EC50, target Daudi cells (experiment 6)” value [2] was 0.00032 µg/mL, the “ADCC EC50, target Daudi cells (experiment 7)” value [2] was 0.0008 µg/mL and the “ADCC EC50, target Daudi cells (experiment 8)” value [2] was 0.00042 µg/mL. The “EC50 (read off the curve)” value [3] was roughly 0.9 µg/mL, the “ADCC Max. % lysis” value [4] was 44% and the “CDC EC50, 10% complement, target Raji cells” value [5] was 0.3 µg/mL. The “CDC EC50, 10% complement, target Raji cells (repeat)” value [5] was 0.17 µg/mL, the “CDC EC50, 10% complement, target Daudi cells (experiment 15)” value [6] was 0.17 µg/mL and the “CDC EC50, 10% complement, target Daudi cells (experiment 16)” value [6] was 0.34 µg/mL. The “CDC EC50, 10% complement, target Daudi cells (experiment 17)” value [6] was 0.26 µg/mL and the “EC50 (read off the curve)” value [7] was roughly 0.9 µg/mL.

B2: aCD38-b-348-m1 (antibody, IgG1, V domains shown)
VH: B1 VH
VL: B1 VL with D92E, G93A
For B2, the “ADCC Max. % lysis” value [4] was 38%.

B3: aCD38-b-348-m3 (antibody, IgG1, V domains shown)
VH: B1 VH
VL: B1 VL with G93A
With B3 the “ADCC Max. % lysis” value [4] was 39%.

B4: aCD38-b-348-m2 (antibody, IgG1, V domains shown)
VH: B1 VH
VL: B1 VL with G93S
B4 was tested, and the “ADCC Max. % lysis” value [4] was 44%.

B5: aCD38-b-348-m4 (antibody, IgG1, V domains shown)
VH: B1 VH
VL: B1 VL with D92E
B5 was tested, and the “ADCC Max. % lysis” value [4] was 38%.
